Assay [1] concerns the target SARS-CoV-2 Omicron BA.2.75.2 RBD, construct used for SPR (SARS-CoV-2) (UniProt P0DTC2). Kind of assay: SPR. Background: In SPR one partner is held on a chip, and binding of the other changes the refractive index at the surface.
In assay [2] the target is SARS-CoV-2 Omicron BQ.1.1 S glycoprotein, cell-surface expressed (Δ19) (SARS-CoV-2) (UniProt P0DTC2).
Assay [3] concerns the target SARS-CoV-2 Omicron XBB.1 S glycoprotein, cell-surface expressed (Δ19) (SARS-CoV-2) (UniProt P0DTC2).
The target of assay [4] is SARS-CoV-2 Omicron BN.1 S glycoprotein, cell-surface expressed (Δ19) (SARS-CoV-2) (UniProt P0DTC2).

As for “S309 Fab (fragment antigen-binding region of the S309 antibody, the parent antibody for sotrovimab), used for SPR”, in assay [1], the Kd – broadly, the free concentration of one partner at which half of the binding sites on the other are occupied at equilibrium, for simple one-to-one binding – was determined as 0.86 nM; the koff (as a rule, a measure of how fast the partners let go of each other) was determined as 2.8e-05 s⁻¹; the kon (as a rule, the rate constant with which the complex forms) came out at 25500 M⁻¹ s⁻¹.

“sotrovimab immunoglobulin G (IgG) (antibody)”: the results for the neutralization of S VSV pseudovirus, fold reduction in potency relative to Wu in assay [2], in assay [3] and in assay [4] were 94 fold, 6.5 fold and 778 fold, respectively.

(Values after article PMC10511321.)
